This note sets out measurements from US20070136826A1 (Biogen, published 2007).

For assay [1], the target named is Mouse CD20 (endogenous, on mouse B cell lines and splenic B cells) (mouse) (UniProt P19437). Briefly: flow cytometry on NS-1 cells; isotype control, PE-anti-mouse IgG2b. A general note: A flow cytometer gives signals particle by particle.
The target in assay [2] is Mouse CD20 with C-terminal Idectin peptide tag, on transfected CHO cells (mouse) (UniProt P19437). Briefly: flow cytometry on CHO-CD20 cells; isotype control, PE-anti-mouse IgG2b.
Assay [3] addresses Mouse CD20 (endogenous, on mouse B cell lines and splenic B cells) (mouse) (UniProt P19437). The assay is described as follows: flow cytometry on wild type C57Bl/6 splenocytes; isotype control, PE-anti-mouse IgG2b.
For assay [4] the target is unchanged. Briefly: flow cytometry on WEHI 279 cells; isotype control, PE-anti-mouse IgG2b.
Assay [5] has the same target. The assay is described as follows: flow cytometry on BCL 1/3B3 cells; isotype control, PE-anti-mouse IgG2b.
For assay [6] the target is unchanged. Briefly: flow cytometry on A20 cells; isotype control, PE-anti-mouse IgG2b.
Assay [7] concerns the target Mouse CD20 with C-terminal V5 peptide tag, on transfected 300.18 cells (mouse) (UniProt P19437). Briefly: flow cytometry on 300.18-CD20 cells; isotype control, PE-anti-mouse IgG2b.
Assay [8] concerns the target T1, Mouse CD20 with C-terminal Idectin peptide tag, on transfected CHO cells (mouse, UniProt P19437 1-291).
T1 construct: also called CHO-CD20; CHO cells transfected with mouse CD20; not shown: Idectin peptide tag at the 3' end of the gene (N5K-CtIdectin-B7.1-Ig vector)
T1 sequence: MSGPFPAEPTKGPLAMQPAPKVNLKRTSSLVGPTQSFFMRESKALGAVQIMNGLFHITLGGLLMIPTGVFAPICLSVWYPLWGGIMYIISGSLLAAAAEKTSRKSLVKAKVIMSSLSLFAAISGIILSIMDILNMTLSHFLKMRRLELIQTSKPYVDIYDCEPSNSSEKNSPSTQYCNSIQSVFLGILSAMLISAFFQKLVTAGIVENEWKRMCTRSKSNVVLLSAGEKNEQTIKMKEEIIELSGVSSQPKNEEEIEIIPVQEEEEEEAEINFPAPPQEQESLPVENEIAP
Briefly: flow cytometry on transfected CHO cells. How it is done:
(§1) Cell Staining and Flow Cytometry Analyses. All staining procedures were done in round bottom 96-well plates (Corning 3799) in FACS buffer (Dulbecco's PBS supplemented with 2% FBS, 0.05% sodium azide, 10% normal goat serum (heat inactivated), and 2.4G2 (1 ug/ml). None of the monoclonal secondary antibodies used recognized rat IgG2b (the 2.4G2 antibody). Cells (1×10⁵ to 1×10⁶) were incubated with primary or secondary antibodies for 45 minutes each on ice, washed between incubations, and resuspended at 1×10⁶ cells/ml in FACS buffer for analyses. Fluorescence was measured on a FACSArray or FACSCalibur and analyzed with BD FACSArray System Software or Cell Quest Pro software.

The target of assay [9] is T2, Mouse CD20 (endogenous, on mouse B cell lines and splenic B cells) (mouse, UniProt P19437 1-291).
T2 construct: also called mCD20
T2 sequence: T1 sequence
The assay is described as follows: summary of Example 1; flow cytometry on cells. Here is the method: as §1

Assay [10] addresses T3, Mouse CD20 with C-terminal V5 peptide tag, on transfected 300.18 cells (mouse, UniProt P19437 1-291).
T3 sequence: T1 sequence
Briefly: flow cytometry on transfected 300.18 cells. Here is the method: as §1

For assay [11], the target named is T4, Rat CD20 (rat, UniProt D4A4Y3 1-287).
T4 construct: whole, on cells; also called CD20 on rat splenic B cells and rat B cell lines
T4 sequence: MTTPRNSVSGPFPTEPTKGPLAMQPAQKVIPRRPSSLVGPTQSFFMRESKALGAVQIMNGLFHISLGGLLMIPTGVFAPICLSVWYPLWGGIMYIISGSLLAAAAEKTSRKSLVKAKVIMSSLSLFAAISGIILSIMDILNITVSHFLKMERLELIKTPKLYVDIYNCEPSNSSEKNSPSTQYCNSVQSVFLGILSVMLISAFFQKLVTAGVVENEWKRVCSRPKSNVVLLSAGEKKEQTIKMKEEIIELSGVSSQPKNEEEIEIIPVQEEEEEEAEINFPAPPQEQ
The assay is described as follows: flow cytometry staining of rat splenic B cells and two rat B cell lines.

Regarding IgG2b isotype control antibody, the geometric mean of fluorescence intensity in assay [1] was determined as 3.8; in assay [2], 3.6; in assay [3] it was 3.8; in [4], 5.9; in assay [5] it was 4.2; in [6] it was 3.4. Also, the geometric mean of fluorescence intensity in [7] is 4.1.

B1: 18B12 IgG1 mouse anti-mouse CD20 monoclonal antibody (antibody, V domains shown)
VH: QVQLQQPGAELVRPGTSVKLSCKASGYTFTSYWMHWIKQRPGQGLEWIGVIDPSDNYTKYNQKFKGKATLTVDTSSSTAYMQLSSLTSEDSAVYFCAREGYYGSSPWFAYWGQGTLVTVSS
VL: QIVMSQSPAILSASPGEKVTMTCRARSSVSYIHWYQQKPGSSPKPWIYATSNLASGVPGRFSGSGSGTSYSLTITRVEAEDAATYYCQQWSSKPPTFGGGTKLEIKR
modifications: N-terminal pyroglutamic acid (N-terminal glutamine blocked)
notes: also called 18B12 antibody; 18B12-A1C3-H3
In the case of B1, the binding result is recorded as “binds” in [8], “binds” in [9], “binds” in assay [10] and “no binding” in assay [11].
